B1: TPR t1 (parent)
chain: GACCAAUCUGCCCUCAGAGCUCGAGAACAUCUUCGGAUGCAGAGGAGGCAGGCUUCGGUGGCGCGAUAGCGCCAACGUCCUCAACCUCCAAUGCAUCCCACCACAUGAUGAUGCCUGAAGAGCCUUGGUUUUUUG

Variants of: B1
Assay: polymerase ribozyme fitness, log enrichment relative to wild type (log ratio); higher = more active; in vitro selection for triplet polymerase activity
Method in brief: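 Fitness measures genotype enrichment against wild-type enrichment on a logarithmic scale, with inverse-variance-weighted averaging of replicates. The logarithm is base 2, and genotypes were kept only with ≥10 input reads and ≥1 read per output in Illumina sequencing. The sequenced libraries came from one triplicate in vitro selection round, including frozen incubation at −7 °C, of PCR-built, transcribed mutant libraries of each subunit of a heterodimeric triplet polymerase ribozyme.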

Row | Variant | polymerase ribozyme fitness (log ratio)
1 | A41U G42C C70A | -6.24
2 | A41C C82A A111C | -2.14
3 | C40U C53U A121G | 1.58
4 | A41U C70G | -5.5
5 | A41U C70U | -2.3
6 | A41G U112A | 1.42
7 | C40U G60C U96G A118G | -1.31
8 | A41C U78C C86A U106A | -1.09
9 | A41G C64U U81A | -2.25
10 | C40U G60U | -0.21
11 | A41C C86A U106A | -1.11
12 | C40U G47C G58A G117A | -4.37
13 | C40U A46G G61U G110A U116A | -3.75
14 | A41U G45C C72A U129C | -2.79
15 | C40U A90C U132A | -1.85
16 | C40U C62G A111G | -2.32
17 | A41G C49G U55A A111C | -1.63
18 | C40U A84C | -0.985
19 | A41U A84G G122A | -3.29
20 | A41G A103C | -5.33
21 | A41U A43C C49U A50G U129C | -4.69
22 | A41G C53U | -0.653
23 | C40U C98A A121C | -4.03
24 | A41U C72U C88U | -1.2

Row | Variant | polymerase ribozyme fitness (log ratio)
25 | C40U C56A | -0.555
26 | C40U C88A C101A A121U | -0.199
27 | A41C C73G | -1.33
28 | C40U C70U | -0.997
29 | C40U A90G C123U | 1.26
30 | A41G C85A C124U G128C U133G | -3.58
31 | C40U C56A C82G C97U C115U U132C | -4.39
32 | A41C C104G G107U G110U | -7.15
33 | A41G G117C | -4.18
34 | C40U G61A U78C | -0.104
35 | C40U C56A A91G | -2.75
36 | C40U G47A G48C G93A G122A | -1.34
37 | A41G A46C | -1.95
38 | C40U C85A G113C | -3.42
39 | A41C G69C C114A | -3.84
40 | A41G U55A G58C G120U | -0.997
41 | C40G U112C | 0.984
42 | C40G U133G | -0.607
43 | A41C G48A G60U G135U | -2.21
44 | C40U C101U C124A | 1.16
45 | A41G C56G G69C U133G | -5.1
46 | A41C G61A G127A | -1.68
47 | A41G C56A G63U C70U | -2.43
48 | A41U C80A | -5.17

Row | Variant | polymerase ribozyme fitness (log ratio)
49 | A41C C114A | -2.37
50 | C40U G52U C88U | -1.18
51 | C40U C70A C102A C124A | -3.93
52 | C40U C62G G110U | -4.6
53 | A41U C114A | -3.03
54 | A41U C114G | -2.94
55 | A41U A111U | -4.55
56 | C40U G63A C102G C114G G122A | -8.78
57 | A41U C49G G52U U112C | -1.09
58 | C40U G44A C62U | -1.32
59 | C40U G69A C99A C114G | -8.02
60 | A41U C97U | -2.14
61 | A41G G57C | -0.0815
62 | C40U G57U C79A | -1.3
63 | A41G C89G G128C | -3.51
64 | A41G C49A G113C C124U | -3.06
65 | C40U G57U G120C | 0.687
66 | C40U G42C C53A C104A | -4.78
67 | A41G G52C A66C C97U | -3.69
68 | A41G G52A G61C C85U C124A U126C | -5.73
69 | C40U G69C G93A U96G | -2.24
70 | C40U U112C | 1.25
71 | C40U U112A | 0.76
72 | C40U U112G | 0.138

Row | Variant | polymerase ribozyme fitness (log ratio)
73 | A41G G48U A121U | 1.04
74 | C40U C82U A84G G107U | -6.74
75 | C40U C76U | -0.869
76 | C40G U125A | -1.17
77 | C40U G63C A121C | 0.618
78 | A41G G110U | -1.97
79 | A41C C98U G117A | -5.3
80 | C40G U92G G120A | -2.62
81 | C40U G45U U55A C73U | -1.76
82 | A41C A83U | -1.29
83 | A41U G44C G47U C70U A84C A108U G117U | -6.98
84 | A41C U59G C79U C124A | 0.881
85 | A41G G48U U112C | 0.49
86 | C40U C85A U129G U132C | -5.2
87 | A41C U81G C115A | -4.91
88 | A41C C80U | -1.79
89 | C40U C53A G60A G69U | -0.0565
90 | A41U A46U C115A G120U C123G | -2.25
91 | A41U C62A | -2.71
92 | A41U C62U | -1.86
93 | A41G G42A | -2.57
94 | A41U C123G G135U | 0.204
95 | A41U A46U C72U A83C U109A | -7.09
96 | A41C G52A A74U C88U | -2.04

Row | Variant | polymerase ribozyme fitness (log ratio)
97 | A41C U78G | -1.18
98 | A41C A46U C70U | -3.44
99 | C40U G47U U109A U129G | -7.79
100 | C40U G61U G71A C99U G120A | -6.74
101 | C40U G120U | -0.132
102 | C40U G120A | 0.164
103 | A41C G117U U131A | -4.61
104 | C40U G107U | -6.46
105 | C40U G48U C62G | -3.32
106 | A41G C104A G113C | -3.19
107 | C40U G45A | -1.41
108 | C40U G45U | -2.01
109 | A41G G47A C76A C101U | -3.57
110 | A41C G63U G93C G117A U132A | -4.71
111 | C40U C70G C98U A119U | -3.66
112 | C40U C56G C88G G93A | -2.89
113 | A41U C73G A103C | -6.66
114 | A41U C56U A75G U78C C82G A118G G120U A121U U129G | -3.43
115 | C40U A74G | -0.128
116 | C40U A83C | -0.818
117 | A41G C76U | -0.163
118 | C40U G57C G58A U116G | -3.95
119 | A41U C70G G120U | -6.06
120 | A41U A46U G63U | -3.33

Row | Variant | polymerase ribozyme fitness (log ratio)
121 | C40U G113U U129C | -3.58
122 | C40U G69C C85U A100G U106C U112C | -4.82
123 | C40U G52A C53U C124A | 0.594
124 | C40U G47C U116G U132C | -4.13
125 | A41U C49U | -2.03
126 | A41U C49G | -2.03
127 | A41G A46U G77U | -3.75
128 | A41G G69U A74U U81A | -1.11
129 | C40U C88A U106C | -1.06
130 | A41U C53G G113C | -3.41
131 | C40U A50G U130C | -0.13
132 | A41C C124G | 0.528
133 | C40U C97A | -5.23
134 | C40U U55C C70U | -1.45
135 | C40U U131A | -0.601
136 | C40U G63C | -0.94
137 | A41C U55G U59C G93C | -2.33
138 | A41U G42C | -2.5
139 | A41C C56G | -4.05
140 | A41C C56U | -0.143
141 | C40U C62U C85G | -2.44
142 | A41C G93U | -1.92
143 | C40U U55C | -0.711
144 | A41G G71U | -0.756

Row | Variant | polymerase ribozyme fitness (log ratio)
145 | A41G G71U A91U | -2.66
146 | A41G A83U C99U C115A U131G | -4.22
147 | C40U C49A C73U C98G | -6.1
148 | A41U C53U | -1.15
149 | C40U A43U | -1.09
150 | C40U C98G | -6.34
151 | A41C U92A | -2.21
152 | A41U C72A G113C | -2.13
153 | A41C U133G | -1.16
154 | A41G U87G U109A C115U | -6.39
155 | A41G C73U A100U | -1.33
156 | C40U G60A A95U G117C A121C | -6.15
157 | C40U G110U | -2.35
158 | A41U A111G U112A A118U | -5.06
159 | A41G C56U C72G G113A G128U | -5.35
160 | A41C U55G A66C G93C | -4.9
161 | C40U C53A C73A C104U | 0.971
162 | A41C C64G | -6.49
163 | C40U G44U U78A C89A A111C G117A G135C | -3.17
164 | C40U C64U C85U A100G U106C U112C | -2.44
165 | C40U A74G C88U G120A A121C | -0.0609
166 | C40U G117U | -1.71
167 | C40U A46G C64U A84C | -1.65
